Experimental data as given in US20190016816A1 (APTEVO RESEARCH AND DEVELOPMENT, published 2019).

Tests used:
FcγRIIIb (CD16b) = target: T1, FcγRIIIb (CD16b) (UniProt O75015 17-200, limits assumed); experiment: flow cytometry, CHO cells stably expressing CD16b, fluorescent anti-human IgG secondary, MFI (mean)
T1 construct: whole, on cells
Text: ALG.APV-210 contains mutations introduced to prevent interaction with Fcγ receptors (FcγR) that could lead to FcγR-mediated T-cell activation or ADCC, ADCP, CDC etc. Binding of ALG.APV-210 was therefore tested on CHO cell transfectants stably expressing the following FcγR: FcγRI (CD64), FcγRIIa (CD32a His131), FcγRIIb (CD32b), FcγRIIIa (CD16a Val158 and CD16a Phe158), and FcγRIIIb (CD16b). Untransfected CHO cells were used as negative control. A control human IgG1 molecule was used as a positive control. Different concentrations of ALG.APV-210 or control IgG1 were incubated with the FcγR-expressing cell lines, washed, and labeled with a secondary anti-human IgG reagent. Binding of ALG.APV-210 and the control IgG1 was detected by flow cytometry.

human CD137 on cells [1] = target: T2, human CD137 on cells (human, UniProt Q07011 24-255); experiment: flow cytometry, percentage of CD8 T cells (gated from CD3-stimulated human PBMC) bound by the biotinylated antibody, exp 1, n=3 donors
T2 construct: also called 4-1BB; TNFRSF9 (CHO-K1/human CD137 cells)
T2 sequence (Q07011 24-255 limits assumed): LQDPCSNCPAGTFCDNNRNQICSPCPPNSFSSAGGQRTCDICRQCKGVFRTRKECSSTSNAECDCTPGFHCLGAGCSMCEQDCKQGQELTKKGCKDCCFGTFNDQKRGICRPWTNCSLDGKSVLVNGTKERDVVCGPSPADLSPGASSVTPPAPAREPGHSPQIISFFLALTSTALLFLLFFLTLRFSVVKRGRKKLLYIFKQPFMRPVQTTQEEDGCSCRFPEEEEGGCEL
Protocol: (§1) Following 48 h of incubation with or without CD3, human and cynomolgus PBMC were harvested, pooled, recounted and diluted in FACS buffer (PBS+0.5% BSA, 0.05% NaN₃) to a concentration of 5×10⁶ cells/mL. 50 μL (0.25×10⁶ cells) of cell solution was added to a 96-well FACS staining plate (Falcon #351190). Following 10 min of Fc-blocking in RT using Beriglobin (hIgG, 200 μg/mL), cells were washed in FACS buffer and then incubated for 1 h in 4° C. with 100 μL of the biotinylated ALG.APV-210 or negative control. The antibodies were added in a serial dilution starting either at 5 μg/mL titrating down in a 12 step ⅓ dilution down to 0.0003 μg/mL (exp 1) or 1 μg/mL titrating down in a 12 step ½ dilution down to 0.0005 μg/mL (exp 2). […] Cells were analysed for ALG.APV-210 binding using flow cytometry by gating on viable, single cells expressing CD3 and CD8. MFI values (FMO subtracted) from 2 independent experiments as well as normalized pooled data from 2 experiments and EC₅₀-values were determined and plotted using GraphPad Prism 7, non-linear regression log (agonist) vs. normalized response—variable slope, n=6 donors/group.

[2] = target: T3, cynomolgus CD137 on cells (cynomolgus macaque, UniProt A9YYE7 24-254); experiment: flow cytometry, CD8 T cells gated from CD3-stimulated cynomolgus PBMC, biotinylated antibody + streptavidin-APC, exp 2, n=3 donors
T3 construct: whole, on cells; also called CHO-K1/cynomolgus CD137 cell line; cynomolgus monkey CD137 on CD3-stimulated primary CD8 T cells
T3 sequence (A9YYE7 entry or part of it): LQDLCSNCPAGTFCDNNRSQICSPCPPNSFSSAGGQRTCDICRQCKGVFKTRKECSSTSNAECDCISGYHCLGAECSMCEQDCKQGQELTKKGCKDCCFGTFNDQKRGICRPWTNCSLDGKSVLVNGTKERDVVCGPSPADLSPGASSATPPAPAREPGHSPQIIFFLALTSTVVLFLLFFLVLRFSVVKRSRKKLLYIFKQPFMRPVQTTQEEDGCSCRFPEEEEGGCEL
Protocol: as §1, with “control.” for “control. The antibodies were added in a serial dilution starting either at 5 μg/mL titrating down in a 12 step ⅓ dilution down to 0.0003 μg/mL (exp 1) or 1 μg/mL titrating down in a 12 step ½ dilution down to 0.0005 μg/mL (exp 2).”
(§2) In ELISA tests, the binding of biotinylated ALG.APV-210 to CD137 was similar to that of the non-biotinylated ALG.APV-210 (0.6 nM vs. 0.7 nM). The binding (EC₅₀) of the biotinylated ALG.APV-210 to its immunomodulatory target CD137 when expressed on activated primary human and cynomolgus CD8 T cells from CD3 stimulated PBMC was assessed and compared between the two species as well as to unstimulated cells. […]

human CD137 on cells [3] = target: T2, human CD137 on cells; experiment: flow cytometry, CD8 T cells gated from CD3-stimulated human PBMC, biotinylated antibody + streptavidin-APC, exp 2, n=3 donors
Protocol: as §1, with “control.” for “control. The antibodies were added in a serial dilution starting either at 5 μg/mL titrating down in a 12 step ⅓ dilution down to 0.0003 μg/mL (exp 1) or 1 μg/mL titrating down in a 12 step ½ dilution down to 0.0005 μg/mL (exp 2).”
as §2

human CD137 on cells [4] = target: T2, human CD137 on cells; experiment: flow cytometry, normalized percentage of CD8 T cells (gated from CD3-stimulated human PBMC) bound by the biotinylated antibody, pooled data of 2 exp, n=6 donors
Protocol: as §1

T1 sequence (O75015 17-200 limits assumed): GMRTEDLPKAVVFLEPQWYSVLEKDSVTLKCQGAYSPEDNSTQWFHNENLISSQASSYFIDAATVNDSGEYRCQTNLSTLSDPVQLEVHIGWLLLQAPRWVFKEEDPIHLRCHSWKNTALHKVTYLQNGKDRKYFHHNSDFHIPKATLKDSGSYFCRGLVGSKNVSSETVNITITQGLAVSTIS

B1: ALG.APV-210 (bispecific antibody)
chain: EVQLLESGGGLVQPGGSLRLSCAASGFTFSHGSMYWVRQAPGKGLEWVSSISSGSGSTYYADSVKGRFTISHDNSKNTLYLQMNSLRAEDTAVYYCARSSYYGSYYSIDYWGQGTLVTVSSGGGGSGGGGSGGGGSGGGGSDIQMTQSPSSLSASVGDRVTITCRASQSISSYLNWYQQKPGKAPKLLIYAASSLQSGVPSRFSGSGSGTDFTLTISSLQPEDFATYYCQQYYDNLPTFGQGTKLEIKEPKSSDKTHTCPPCPAPEAAGAPSVFLFPPKPKDTLMISRTPEVTCVVVDVSHEDPEVKFNWYVDGVEVHNAKTKPREEQYNSTYRVVSVLTVLHQDWLNGKEYKCAVSNKALPAPIEKTISKAKGQPREPQVYTLPPSRDELTKNQVSLTCLVKGFYPSDIAVEWESNGQPENNYKTTPPVLDSDGSFFLYSKLTVDKSRWQQGNVFSCSVMHEALHNHYTQKSLSLSPGSGGGGSGGGGSGGGGSPSEVQLLESGGGLVQPGGSLRLSCAASGFTFSSYAMSWVRQAPGKCLEWVSAISGSGGSTYYADSVKGRFTISRDNSKNTLYLQMNSLRAEDTAVYYCARYYGGYYSAWMDYWGQGTLVTVSSGGGGSGGGGSGGGGSGGGGSDIQMTQSPSSLSASVGDRVTITCRASQSISSFLNWYQQKPGKAPKLLIYAASSLQSGVPSRFSGSGSGTDFTLTISSLQPEDSATYYCQQTYGYLHTFGCGTKLEIKR
notes: Optimized ADAPTIR scFv-Fc-scFv homodimer with stabilizing disulfide in the 1210 scFv; also called 5T4-CD137 bispecific antibody
Q: Does B1 bind (FcγRIIIb (CD16b))?
A: no binding (tested: 1000 nM)

B2: biotinylated ALG.APV-210 (bispecific antibody)
chain: EVQLLESGGGLVQPGGSLRLSCAASGFTFSHGSMYWVRQAPGKGLEWVSSISSGSGSTYYADSVKGRFTISHDNSKNTLYLQMNSLRAEDTAVYYCARSSYYGSYYSIDYWGQGTLVTVSSGGGGSGGGGSGGGGSGGGGSDIQMTQSPSSLSASVGDRVTITCRASQSISSYLNWYQQKPGKAPKLLIYAASSLQSGVPSRFSGSGSGTDFTLTISSLQPEDFATYYCQQYYDNLPTFGQGTKLEIKEPKSSDKTHTCPPCPAPEAAGAPSVFLFPPKPKDTLMISRTPEVTCVVVDVSHEDPEVKFNWYVDGVEVHNAKTKPREEQYNSTYRVVSVLTVLHQDWLNGKEYKCAVSNKALPAPIEKTISKAKGQPREPQVYTLPPSRDELTKNQVSLTCLVKGFYPSDIAVEWESNGQPENNYKTTPPVLDSDGSFFLYSKLTVDKSRWQQGNVFSCSVMHEALHNHYTQKSLSLSPGSGGGGSGGGGSGGGGSPSEVQLLESGGGLVQPGGSLRLSCAASGFTFSSYAMSWVRQAPGKCLEWVSAISGSGGSTYYADSVKGRFTISRDNSKNTLYLQMNSLRAEDTAVYYCARYYGGYYSAWMDYWGQGTLVTVSSGGGGSGGGGSGGGGSGGGGSDIQMTQSPSSLSASVGDRVTITCRASQSISSFLNWYQQKPGKAPKLLIYAASSLQSGVPSRFSGSGSGTDFTLTISSLQPEDSATYYCQQTYGYLHTFGCGTKLEIKR
notes: also called ALG.APV-210 (biotinylated for FACS detection)
Q: How did the “EC50 (read off the curve)” value (human CD137 on cells [1]) turn out when B2 was run?
A: ~0.02 nM

Q: What about the “EC50 (read off the curve)” value [2] of the same binder?
A: ~0.2 nM

Q: What about the “EC50 (read off the curve)” value (human CD137 on cells [3]) of the same binder?
A: ~0.2 nM

Q: And the EC50 (human CD137 on cells [4])?
A: 0.027 nM
